Test results from patent US20210388053A1.
Each block holds one binder with its values, some of them ahead of it.

How the values were obtained:
[1] = biological target: canine FcRn/B2M protein complex (canine FcRn ECD with C-terminal poly-His tag and canine Beta-2-Microglobulin) (canine); assay: SPR Biacore 8K, pH 6.0, 25 C; Fc captured by SASA tag on BSA chip, FcRn/B2M 400 nM as analyte
[2] = biological target: canine FcRn/B2M protein complex (canine FcRn ECD with C-terminal poly-His tag and canine Beta-2-Microglobulin) (canine); assay: SPR Biacore 8K, pH 6.0, 25 C; Fc captured by SASA tag on BSA chip, FcRn/B2M 400 nM as analyte; dissociation exceeded the detection limit
[3] = biological target: canine FcRn/B2M protein complex (canine FcRn ECD with C-terminal poly-His tag and canine Beta-2-Microglobulin) (canine); assay: SPR Biacore T200, pH 6.0; biotinylated FcRn/B2M captured on streptavidin, antibody 2.5-160 nM as analyte, kinetic fit
[4] = biological target: canine FcRn/B2M protein complex (canine FcRn ECD with C-terminal poly-His tag and canine Beta-2-Microglobulin) (canine); assay: SPR Biacore T200, pH 6.0; biotinylated FcRn/B2M captured on streptavidin, antibody 1.5625-100 nM as analyte, kinetic fit
[5] = biological target: canine FcRn/B2M protein complex (canine FcRn ECD with C-terminal poly-His tag and canine Beta-2-Microglobulin) (canine); assay: SPR Biacore T200, pH 6.0; biotinylated FcRn/B2M captured on streptavidin, antibody 12.5-800 nM, steady state analysis
[6] = biological target: canine FcRn/B2M protein complex (canine FcRn ECD with C-terminal poly-His tag and canine Beta-2-Microglobulin) (canine); assay: SPR Biacore T200, pH 6.0; biotinylated FcRn/B2M captured on streptavidin, antibody 18.75-1200 nM, steady state analysis

Sequence of canine FcRn/B2M protein complex (canine FcRn ECD with C-terminal poly-His tag and canine Beta-2-Microglobulin) (canine) (chain, as listed by the source limits assumed, form in doubt, chain 1 of 2): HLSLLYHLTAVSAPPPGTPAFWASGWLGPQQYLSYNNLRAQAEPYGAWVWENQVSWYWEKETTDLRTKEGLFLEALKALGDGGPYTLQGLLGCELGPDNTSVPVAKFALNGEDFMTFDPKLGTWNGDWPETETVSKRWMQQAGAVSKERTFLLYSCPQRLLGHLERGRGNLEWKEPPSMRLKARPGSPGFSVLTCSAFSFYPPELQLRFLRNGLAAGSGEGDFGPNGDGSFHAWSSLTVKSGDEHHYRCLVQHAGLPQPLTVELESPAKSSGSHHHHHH
Sequence of canine FcRn/B2M protein complex (canine FcRn ECD with C-terminal poly-His tag and canine Beta-2-Microglobulin) (canine) (b2m, as listed by the source limits assumed, form in doubt, chain 2 of 2): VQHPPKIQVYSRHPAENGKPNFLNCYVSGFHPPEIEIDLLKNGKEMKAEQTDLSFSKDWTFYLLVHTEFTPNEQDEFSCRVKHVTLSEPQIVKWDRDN

B3: caninized anti-canine IL31 clone M14 antibody with Y0Y variant canine IgG-B Fc polypeptide (antibody)
heavy: EVQLVESGPSLVKPGGSLRLTCSVTGDSITSGYWNWIRKFPGNKLEYMGYISYSGITDYNPSLKSRITISRDTSKNQYYLQLNSVTTEDTATYYCARYGNYGYAMDYWGQGTLVTVSSASTTAPSVFPLAPSCGSTSGSTVALACLVSGYFPEPVTVSWNSGSLTSGVHTFPSVLQSSGLYSLSSMVTVPSSRWPSETFTCNVAHPASKTKVDKPVPKRENGRVPRPPDCPKCPAPEMLGGPSVFIFPPKPKDTLYIARTPEVTCVVVDLDPEDPEVQISWFVDGKQMQTAKTQPREEQFNGTYRVVSVLPIGHQDWLKGKQFTCKVNNKALPSPIERTISKARGQAHQPSVYVLPPSREELSKNTVSLTCLIKDFFPPDIDVEWQSNGQQEPESKYRTTPPQLDEDGSYFLYSKLSVDKSRWQRGDTFICAVMHEALHYHYTQESLSHSPGK
light: DIVMTQSPASLSVSLGQRATISCRASESVDTYGNSFMHWYQQKPGQSPKLLIYRASNLESGIPARFGGSGSGTDFTLTIDPVQADDVATYYCQQSYEDPWTFGGGTKLEIKRNDAQPAVYLFQPSPDQLHTGSASVVCLLNSFYPKDINVKWKVDGVIQDTGIQESVTEQDKDSTYSLSSTLTMSSTEYLSHELYSCEITHKSLPSTLIKSFQRSECQRVD
Kd [3]: 15.6 nM
koff [3]: 0.00262 s⁻¹
kon [3]: 168000 M⁻¹ s⁻¹

B4: caninized anti-canine IL31 clone M14 antibody with YYY variant canine IgG-B Fc polypeptide (antibody)
heavy: EVQLVESGPSLVKPGGSLRLTCSVTGDSITSGYWNWIRKFPGNKLEYMGYISYSGITDYNPSLKSRITISRDTSKNQYYLQLNSVTTEDTATYYCARYGNYGYAMDYWGQGTLVTVSSASTTAPSVFPLAPSCGSTSGSTVALACLVSGYFPEPVTVSWNSGSLTSGVHTFPSVLQSSGLYSLSSMVTVPSSRWPSETFTCNVAHPASKTKVDKPVPKRENGRVPRPPDCPKCPAPEMLGGPSVFIFPPKPKDTLYIARTPEVTCVVVDLDPEDPEVQISWFVDGKQMQTAKTQPREEQFNGTYRVVSVLPIGHYDWLKGKQFTCKVNNKALPSPIERTISKARGQAHQPSVYVLPPSREELSKNTVSLTCLIKDFFPPDIDVEWQSNGQQEPESKYRTTPPQLDEDGSYFLYSKLSVDKSRWQRGDTFICAVMHEALHYHYTQESLSHSPGK
light: DIVMTQSPASLSVSLGQRATISCRASESVDTYGNSFMHWYQQKPGQSPKLLIYRASNLESGIPARFGGSGSGTDFTLTIDPVQADDVATYYCQQSYEDPWTFGGGTKLEIKRNDAQPAVYLFQPSPDQLHTGSASVVCLLNSFYPKDINVKWKVDGVIQDTGIQESVTEQDKDSTYSLSSTLTMSSTEYLSHELYSCEITHKSLPSTLIKSFQRSECQRVD
Kd [4]: 3.84 nM
koff [4]: 0.000869 s⁻¹
kon [4]: 227000 M⁻¹ s⁻¹

B5: caninized anti-canine IL31 clone M14 antibody with YTE variant canine IgG-B Fc polypeptide (antibody)
heavy: EVQLVESGPSLVKPGGSLRLTCSVTGDSITSGYWNWIRKFPGNKLEYMGYISYSGITDYNPSLKSRITISRDTSKNQYYLQLNSVTTEDTATYYCARYGNYGYAMDYWGQGTLVTVSSASTTAPSVFPLAPSCGSTSGSTVALACLVSGYFPEPVTVSWNSGSLTSGVHTFPSVLQSSGLYSLSSMVTVPSSRWPSETFTCNVAHPASKTKVDKPVPKRENGRVPRPPDCPKCPAPEMLGGPSVFIFPPKPKDTLYITREPEVTCVVVDLDPEDPEVQISWFVDGKQMQTAKTQPREEQFNGTYRVVSVLPIGHQDWLKGKQFTCKVNNKALPSPIERTISKARGQAHQPSVYVLPPSREELSKNTVSLTCLIKDFFPPDIDVEWQSNGQQEPESKYRTTPPQLDEDGSYFLYSKLSVDKSRWQRGDTFICAVMHEALHNHYTQESLSHSPGK
light: DIVMTQSPASLSVSLGQRATISCRASESVDTYGNSFMHWYQQKPGQSPKLLIYRASNLESGIPARFGGSGSGTDFTLTIDPVQADDVATYYCQQSYEDPWTFGGGTKLEIKRNDAQPAVYLFQPSPDQLHTGSASVVCLLNSFYPKDINVKWKVDGVIQDTGIQESVTEQDKDSTYSLSSTLTMSSTEYLSHELYSCEITHKSLPSTLIKSFQRSECQRVD
Kd [5]: 231 nM

The next lines start with the values.

kon [1]: 271000 M⁻¹ s⁻¹
Kd [2]: 0.000602 nM
koff [2]: 1.63e-07 s⁻¹
B1: variant canine IgG-B Fc polypeptide YYF (Leu24Tyr, Gln83Tyr, Asn208Phe) (protein, not shown: small tags and cut ends)
chain: CPAPEMLGGPSVFIFPPKPKDTLYIARTPEVTCVVVDLDPEDPEVQISWFVDGKQMQTAKTQPREEQFNGTYRVVSVLPIGHYDWLKGKQFTCKVNNKALPSPIERTISKARGQAHQPSVYVLPPSREELSKNTVSLTCLIKDFFPPDIDVEWQSNGQQEPESKYRTTPPQLDEDGSYFLYSKLSVDKSRWQRGDTFICAVMHEALHFHYTQESLSHSPGK

kon [1]: 262000 M⁻¹ s⁻¹
Kd [2]: 0.000713 nM
koff [2]: 1.87e-07 s⁻¹
B2: variant canine IgG-B Fc polypeptide YYY (Leu24Tyr, Gln83Tyr, Asn208Tyr) (protein, not shown: small tags and cut ends)
chain: CPAPEMLGGPSVFIFPPKPKDTLYIARTPEVTCVVVDLDPEDPEVQISWFVDGKQMQTAKTQPREEQFNGTYRVVSVLPIGHYDWLKGKQFTCKVNNKALPSPIERTISKARGQAHQPSVYVLPPSREELSKNTVSLTCLIKDFFPPDIDVEWQSNGQQEPESKYRTTPPQLDEDGSYFLYSKLSVDKSRWQRGDTFICAVMHEALHYHYTQESLSHSPGK

Kd [6]: 410 nM
B6: caninized anti-canine IL31 clone M14 antibody with wild-type canine IgG-B Fc polypeptide (antibody)
heavy: EVQLVESGPSLVKPGGSLRLTCSVTGDSITSGYWNWIRKFPGNKLEYMGYISYSGITDYNPSLKSRITISRDTSKNQYYLQLNSVTTEDTATYYCARYGNYGYAMDYWGQGTLVTVSSASTTAPSVFPLAPSCGSTSGSTVALACLVSGYFPEPVTVSWNSGSLTSGVHTFPSVLQSSGLYSLSSMVTVPSSRWPSETFTCNVAHPASKTKVDKPVPKRENGRVPRPPDCPKCPAPEMLGGPSVFIFPPKPKDTLLIARTPEVTCVVVDLDPEDPEVQISWFVDGKQMQTAKTQPREEQFNGTYRVVSVLPIGHQDWLKGKQFTCKVNNKALPSPIERTISKARGQAHQPSVYVLPPSREELSKNTVSLTCLIKDFFPPDIDVEWQSNGQQEPESKYRTTPPQLDEDGSYFLYSKLSVDKSRWQRGDTFICAVMHEALHNHYTQESLSHSPGK
light: DIVMTQSPASLSVSLGQRATISCRASESVDTYGNSFMHWYQQKPGQSPKLLIYRASNLESGIPARFGGSGSGTDFTLTIDPVQADDVATYYCQQSYEDPWTFGGGTKLEIKRNDAQPAVYLFQPSPDQLHTGSASVVCLLNSFYPKDINVKWKVDGVIQDTGIQESVTEQDKDSTYSLSSTLTMSSTEYLSHELYSCEITHKSLPSTLIKSFQRSECQRVD
